Data: paper PMC8437803, “Structural basis of RNA processing by human mitochondrial RNase P” (Nature Structural & Molecular Biology, 2021)

Biological target: T1, Δ1–45 PRORP (human, UniProt O15091 46-583)
T1 construct: PRORP (MRPP3), human, without the predicted mitochondrial targeting signal (residues 1-45); also called MRPP3; Δ45-PRORP; source: E. coli BL21 (DE3) RIL, purified (HisTrap, TEV cleavage, heparin, Superdex 200); not shown: His6, N-terminal, cleaved
T1 sequence (looked up): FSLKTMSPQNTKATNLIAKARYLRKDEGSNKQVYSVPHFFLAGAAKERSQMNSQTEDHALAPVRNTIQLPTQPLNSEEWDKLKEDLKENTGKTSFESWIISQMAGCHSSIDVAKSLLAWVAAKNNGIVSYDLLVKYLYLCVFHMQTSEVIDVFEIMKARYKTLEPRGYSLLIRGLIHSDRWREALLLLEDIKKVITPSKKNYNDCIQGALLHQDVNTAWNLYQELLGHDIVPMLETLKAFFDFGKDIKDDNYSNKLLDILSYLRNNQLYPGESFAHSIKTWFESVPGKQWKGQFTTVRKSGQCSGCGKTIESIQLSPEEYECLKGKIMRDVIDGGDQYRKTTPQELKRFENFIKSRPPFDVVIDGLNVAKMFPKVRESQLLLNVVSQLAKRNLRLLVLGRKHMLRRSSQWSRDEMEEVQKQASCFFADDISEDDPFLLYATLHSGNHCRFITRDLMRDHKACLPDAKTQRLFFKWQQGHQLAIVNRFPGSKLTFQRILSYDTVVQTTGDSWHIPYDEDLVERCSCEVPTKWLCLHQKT
Test: cryo-EM structure; Δ1–39 TRMT10C–SDR5C1 complex mixed with pre-tRNA^Tyr and NADH, then PRORP added, 30 °C, 100 mM Tris-HCl pH 8.0, 100 mM NaCl, 250 μM EDTA (Mg2+-depleted), 2 mM DTT; complex purified on Superdex 200 Increase 3.2/300; single-particle cryo-EM, 3.0 Å
Conditions: both partners purified

B1: Δ1–39 TRMT10C (enzyme, human, UniProt Q7L0Y3 40-403, looked up)
chain: MSSKIPAVTYPKNESTPPSEELELDKWKTTMKSSVQEECVSTISSSKDEDPLAATREFIEMWRLLGREVPEHITEEELKTLMECVSNTAKKKYLKYLYTKEKVKKARQIKKEMKAAAREEAKNIKLLETTEEDKQKNFLFLRLWDRNMDIAMGWKGAQAMQFGQPLVFDMAYENYMKRKELQNTVSQLLESEGWNRRNVDPFHIYFCNLKIDGALHRELVKRYQEKWDKLLLTSTEKSHVDLFPKDSIIYLTADSPNVMTTFRHDKVYVIGSFVDKSMQPGTSLAKAKRLNLATECLPLDKYLQWEIGNKNLTLDQMIRILLCLKNNGNWQEALQFVPKRKHTGFLEISQHSQEFINRLKKAKT
notes: TRMT10C (MRPP1), human, without the predicted mitochondrial targeting signal (residues 1-39); 6x His tag and TEV site on TRMT10C only; tag cleaved by TEV protease during purification; also called MRPP1; Δ39 TRMT10C; source: E. coli BL21 (DE3) RIL, coexpressed with SDR5C1, copurified (HisTrap, TEV cleavage, heparin, Superdex 200); not shown: His6, N-terminal, cleaved
B1: binds.
